Laboratory results: patent US20130058952A1 (UNIVERSIT T DUISBERG ESSEN, published 2013)

Legend:
[1] = target: T1, glycoprotein B (gB) of HSV-1 strain F on infected Vero cells (Herpes simplex virus type 1, strain F, UniProt P06436 30-903); assay: cell-based or functional assay
[2] = target: T1, glycoprotein B (gB) of HSV-1 strain F …; assay: flow cytometry, equilibrium binding to gB on HSV-1 F infected Vero cells, KD from nonlinear regression fit
[3] = target: T1, glycoprotein B (gB) of HSV-1 strain F …; assay: flow cytometry on HSV-infected Vero cells (FIG. 5)
[4] = target: T1, glycoprotein B (gB) of HSV-1 strain F …; assay: flow cytometry on HSV-1 F infected Vero cells
[5] = target: T1, glycoprotein B (gB) of HSV-1 strain F …; assay: cell-based or functional assay; remark: listed apart in the source
[6] = target: T1, glycoprotein B (gB) of HSV-1 strain F …; assay: flow cytometry competition on HSV-1 infected Vero cells against 100 nM mAb 2c
[7] = target: T2, duotope 179YSQFMG184-βA-300FYGYRE305; assay: peptide and duotope microarray on glass slides, mAb 2c, fluorescence laser scan, signal intensity (LU)
T2 construct: also called YSQFMG-βA-FYGYRE

[8] = target: T3, duotope 186FED188-βA-βA-300FYGYRE305; assay: as above
T3 construct: also called FED-βA-βA-FYGYRE

[9] = target: designed 12-mer peptide PFYGYRE-G-FEDF; assay: cellulose-bound peptides probed with MAb 2c, chemiluminescence
[10] = target: T4, truncated HSV-1 glycoprotein B gB(1-130) (Herpes simplex virus type 1, strain 17+, UniProt P10211 31-130); assay: indirect immunofluorescence on transfected COS-1 cells
T4 construct: range 31-130

[11] = target: T5, truncated HSV-1 glycoprotein B gB(436-642) (Herpes simplex virus type 1, strain 17+, UniProt P10211 436-642); assay: as above
T5 construct: range 436-642

[12] = target: T6, truncated HSV-1 glycoprotein B gB(1-223) (Herpes simplex virus type 1, strain 17+, UniProt P10211 31-223); assay: as above
T6 construct: range 31-223

[13] = target: T7, glycoprotein B (gB) of HSV-2 strain G on infected Vero cells (Herpes simplex virus type 2, strain G); assay: flow cytometry, equilibrium binding curves on HSV-2 G infected Vero cells
T7 construct: whole, on cells; also called HSV-2 G

[14] = target: T7, glycoprotein B (gB) of HSV-2 strain G …; assay: flow cytometry on HSV-2 G infected Vero cells

Binder	concentration [nM] required for 50% neutralization of 100 TCID50 [1]	concentration [nM] required for 100% neutralization of 100 TCID50 [1]	Kd [2]	EC50 (read off the curve) [4]	also measured
humanized mAb h2c-V2 (antibody, V domains shown, also called hu2c-V2) VH: QVTLKESGPALVKPTQTLTLTCTFSGFSLSTSGMSVGWIRQPPGKALEWLAHIWWNNDKYYKPALKSRLTISKDTSKKQVVLTMTNMDPVDTATYYCARIYYGYRPYAMDYWGQGTLVTVSS VL: DIVMTQTPLSLPVTPGEPASISCRSSQSIVHSNGNTYLEWYLQKPGQSPQLLIYKVSNRFSGVPDRFSGSGSGTDFTLKISRVEAEDVGVYYCFQGSHVPWSFGQGTKVEIKR	5.1 nM	15.6 nM	21.4 nM	~20 nM	fold lower affinity in comparison to mAb 2c [3]: 2 fold
humanized mAb h2c-V1 (antibody, V domains shown, also called hu2c-V1; mAb hu2c-V1) VH: QVTLKESGPALVKPTQTLTLTCTFSGFSLSTSGMSVGWIRQPPGKALEWLAHIWWNNDKYYKPALKSRLTISKDTSKNQVVLTMTNMDPVDTATYYCARIYYGYRPYAMDYWGQGTLVTVSS VL: DIVMTQTPLSLPVTPGEPASISCRSSQSIVHSNGNTYLEWYLQKPGQSPQLLIYKVSNRFSGVPDRFSGSGSGTDFTLKISRVEAEDVGVYYCFQGSHVPWSFGQGTKVEIKR	3.7 nM	7.8 nM	12.8 nM	~10 nM	inhibition of HSV-1 F cell-to-cell spread in Vero cell monolayers [5]: 500 nM
humanized mAb h2c-V3 (antibody, V domains shown, also called hu2c-V3) VH: QVTLKESGPALVKPTQTLTLTCTFSGFSLSTSGMSVGWIRQPPGKALEWLAHIWWNNDKYYKPALKSRLTISKDTSKKQVFLTMTNMDPVDTATYYCARIYYGYRPYAMDYWGQGTLVTVSS VL: DIVMTQTPLSLPVTPGEPASISCRSSQSIVHSNGNTYLEWYLQKPGQSPQLLIYKVSNRFSGVPDRFSGSGSGTDFTLKISRVEAEDVGVYYCFQGSHVPWSFGQGTKVEIKR	3.3 nM	7.8 nM	11.4 nM	~10 nM	IC50 (read off the curve) [6]: ~100 nM
humanized mAb h2c-V4 (antibody, V domains shown, also called hu2c-V4) VH: QVTLKESGPALVKPTQTLTLTCTFSGFSLSTSGMSVGWIRQPPGKALEWLAHIWWNNDKYYKPALKSRLTISKDTSKKQVFLTMTNMDPVDTATYYCARIYYGYRPYAMDYWGQGTLVTVSS VL: DVVMTQTPLSLPVTPGEPASISCRSSQSIVHSNGNTYLEWYLQKPGQSPQLLIYKVSNRFSGVPDRFSGSGSGTDFTLKISRVEAEDVGVYYCFQGSHVPWSFGQGTKVEIKR	3.7 nM	7.8 nM	13.7 nM	~10 nM	
murine monoclonal antibody (mAb) 2c (antibody, V domains shown, also called 2c IgG; 2c-IgG) VH: QVTLKESGPGILLPSQTLSLTCSFSGFSLSTSGMSVGWIRQPSGKGLEWLGHIWWNNDKYYKPALKSRLTISKDTSNKQVFLKIASVVTADTATYYCARIYYGYRPYAMDYWGQGTSVTVSS VL: DVLMTQTPLSLPVSLGDQASISCRSSQSIVHSNGNTYLEWYLQKPGQSPKLLIYKVSNRFSGVPDRFSGSGSGTDFTLKISRVEAEDLGVYYCFQGSHVPWSFGGGTKLEIKR					binding result [7]: binds; binding result [8]: binds; binding result [9]: binds; binding result [10]: no binding; binding result [11]: no binding; binding result [12]: no binding
2c-F(ab′)2 (other, also called F(ab′)-2-fragment; F(ab)2-fragment of mAb 2c) VH: QVTLKESGPGILLPSQTLSLTCSFSGFSLSTSGMSVGWIRQPSGKGLEWLGHIWWNNDKYYKPALKSRLTISKDTSNKQVFLKIASVVTADTATYYCARIYYGYRPYAMDYWGQGTSVTVSS VL: DVLMTQTPLSLPVSLGDQASISCRSSQSIVHSNGNTYLEWYLQKPGQSPKLLIYKVSNRFSGVPDRFSGSGSGTDFTLKISRVEAEDLGVYYCFQGSHVPWSFGGGTKLEIKR					Kd [13]: 8.8 nM; EC50 (read off the curve) [14]: ~8 nM
2c-Fab (Fab, V domains shown, also called Fab-fragment of mAb 2c; monovalent 2c-Fab fragment) VH: QVTLKESGPGILLPSQTLSLTCSFSGFSLSTSGMSVGWIRQPSGKGLEWLGHIWWNNDKYYKPALKSRLTISKDTSNKQVFLKIASVVTADTATYYCARIYYGYRPYAMDYWGQGTSVTVSS VL: DVLMTQTPLSLPVSLGDQASISCRSSQSIVHSNGNTYLEWYLQKPGQSPKLLIYKVSNRFSGVPDRFSGSGSGTDFTLKISRVEAEDLGVYYCFQGSHVPWSFGGGTKLEIKR					Kd [13]: 17.7 nM; EC50 (read off the curve) [14]: ~20 nM
